The values below come from patent US20220089784A1 (University of California, published 2022).

Where two headings read alike, the source gives them in different places.

Assay [1] has as its target T1, BoNT/A1 holotoxin (Hall hyper) (Clostridium botulinum, UniProt P0DPI0 2-1296).
The target of assay [2] is T2, BoNT/A2 holotoxin (FRI-H1A2) (Clostridium botulinum, UniProt Q45894 2-1296).
For assay [3], the target named is T3, BoNT/F1 (proteolytic BoNT/F) (Clostridium botulinum, UniProt A7GBG3 1-1278).
T3 sequence: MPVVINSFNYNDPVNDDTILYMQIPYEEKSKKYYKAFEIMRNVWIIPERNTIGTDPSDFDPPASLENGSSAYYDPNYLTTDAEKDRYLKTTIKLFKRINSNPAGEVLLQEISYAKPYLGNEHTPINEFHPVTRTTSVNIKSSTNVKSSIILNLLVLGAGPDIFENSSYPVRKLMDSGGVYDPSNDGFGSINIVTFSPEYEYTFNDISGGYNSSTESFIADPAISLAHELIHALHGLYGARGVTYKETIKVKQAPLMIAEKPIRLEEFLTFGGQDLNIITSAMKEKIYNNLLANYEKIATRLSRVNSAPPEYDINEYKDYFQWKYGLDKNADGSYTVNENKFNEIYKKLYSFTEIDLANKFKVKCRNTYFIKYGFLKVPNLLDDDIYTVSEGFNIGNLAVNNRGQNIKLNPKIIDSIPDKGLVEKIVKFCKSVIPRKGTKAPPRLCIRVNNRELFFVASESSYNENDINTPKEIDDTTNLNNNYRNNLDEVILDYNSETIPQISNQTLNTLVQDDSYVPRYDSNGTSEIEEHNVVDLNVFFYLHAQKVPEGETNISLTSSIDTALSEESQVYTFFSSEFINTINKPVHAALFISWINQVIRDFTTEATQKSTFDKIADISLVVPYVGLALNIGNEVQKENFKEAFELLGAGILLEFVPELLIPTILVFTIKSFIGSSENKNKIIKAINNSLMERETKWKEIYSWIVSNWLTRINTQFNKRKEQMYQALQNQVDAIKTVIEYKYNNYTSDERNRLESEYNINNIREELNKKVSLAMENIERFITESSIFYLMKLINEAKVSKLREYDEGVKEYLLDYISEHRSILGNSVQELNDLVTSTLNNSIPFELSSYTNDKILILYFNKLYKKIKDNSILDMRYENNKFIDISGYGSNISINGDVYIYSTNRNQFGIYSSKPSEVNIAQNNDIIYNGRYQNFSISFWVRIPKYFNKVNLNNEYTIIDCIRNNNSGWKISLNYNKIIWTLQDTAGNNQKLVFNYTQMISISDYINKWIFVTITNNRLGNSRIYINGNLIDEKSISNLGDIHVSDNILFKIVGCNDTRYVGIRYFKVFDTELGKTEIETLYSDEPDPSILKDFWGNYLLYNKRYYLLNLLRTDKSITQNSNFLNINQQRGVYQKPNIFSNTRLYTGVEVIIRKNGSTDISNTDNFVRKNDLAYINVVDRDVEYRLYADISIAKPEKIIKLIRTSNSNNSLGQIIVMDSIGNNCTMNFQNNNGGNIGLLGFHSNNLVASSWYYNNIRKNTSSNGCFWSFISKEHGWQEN
Briefly: yeast scFv FACS.

For another assay, the target named is T4, BoNT/F 202F (Clostridium botulinum, UniProt P30996 1-1274).
T4 sequence: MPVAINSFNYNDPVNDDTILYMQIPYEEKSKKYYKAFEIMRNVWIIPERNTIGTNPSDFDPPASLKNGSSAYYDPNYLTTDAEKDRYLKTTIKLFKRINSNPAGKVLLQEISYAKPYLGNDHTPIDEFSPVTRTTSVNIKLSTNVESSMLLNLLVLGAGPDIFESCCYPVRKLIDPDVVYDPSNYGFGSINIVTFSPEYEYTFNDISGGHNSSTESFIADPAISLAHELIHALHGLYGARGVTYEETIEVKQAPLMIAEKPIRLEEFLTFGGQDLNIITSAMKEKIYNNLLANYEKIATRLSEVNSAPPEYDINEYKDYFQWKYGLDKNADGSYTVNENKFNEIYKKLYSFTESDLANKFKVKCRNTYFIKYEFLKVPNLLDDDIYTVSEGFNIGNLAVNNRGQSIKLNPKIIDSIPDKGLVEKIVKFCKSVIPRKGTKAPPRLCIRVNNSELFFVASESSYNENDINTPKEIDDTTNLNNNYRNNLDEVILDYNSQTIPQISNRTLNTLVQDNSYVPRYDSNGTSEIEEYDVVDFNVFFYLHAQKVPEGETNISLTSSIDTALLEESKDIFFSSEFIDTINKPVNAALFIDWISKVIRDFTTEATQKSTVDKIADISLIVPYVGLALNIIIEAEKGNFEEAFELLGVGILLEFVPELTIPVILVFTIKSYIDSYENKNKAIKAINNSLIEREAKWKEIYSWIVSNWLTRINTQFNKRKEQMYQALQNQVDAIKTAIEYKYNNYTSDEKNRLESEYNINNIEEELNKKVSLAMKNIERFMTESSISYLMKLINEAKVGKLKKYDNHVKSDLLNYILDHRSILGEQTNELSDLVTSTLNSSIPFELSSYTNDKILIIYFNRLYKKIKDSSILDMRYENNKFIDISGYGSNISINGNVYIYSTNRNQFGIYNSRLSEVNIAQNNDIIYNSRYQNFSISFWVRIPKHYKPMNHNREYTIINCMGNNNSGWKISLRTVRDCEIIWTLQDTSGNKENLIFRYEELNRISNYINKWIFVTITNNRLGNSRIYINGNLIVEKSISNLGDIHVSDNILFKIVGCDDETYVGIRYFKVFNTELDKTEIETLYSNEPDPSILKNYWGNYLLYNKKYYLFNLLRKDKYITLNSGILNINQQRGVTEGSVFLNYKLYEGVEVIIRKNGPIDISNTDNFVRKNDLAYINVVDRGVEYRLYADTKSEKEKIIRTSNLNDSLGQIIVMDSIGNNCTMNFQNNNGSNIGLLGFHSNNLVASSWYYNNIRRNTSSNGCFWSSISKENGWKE
The experiment in a line: yeast scFv FACS.

The target of assay [4] is T3, BoNT/F1 (proteolytic BoNT/F). The experiment in a line: yeast scFv FACS. This is another data set of the same source.
The next assay concerns the target T5, BoNT/F6 (Clostridium botulinum, UniProt P30996 1-1274).
T5 sequence: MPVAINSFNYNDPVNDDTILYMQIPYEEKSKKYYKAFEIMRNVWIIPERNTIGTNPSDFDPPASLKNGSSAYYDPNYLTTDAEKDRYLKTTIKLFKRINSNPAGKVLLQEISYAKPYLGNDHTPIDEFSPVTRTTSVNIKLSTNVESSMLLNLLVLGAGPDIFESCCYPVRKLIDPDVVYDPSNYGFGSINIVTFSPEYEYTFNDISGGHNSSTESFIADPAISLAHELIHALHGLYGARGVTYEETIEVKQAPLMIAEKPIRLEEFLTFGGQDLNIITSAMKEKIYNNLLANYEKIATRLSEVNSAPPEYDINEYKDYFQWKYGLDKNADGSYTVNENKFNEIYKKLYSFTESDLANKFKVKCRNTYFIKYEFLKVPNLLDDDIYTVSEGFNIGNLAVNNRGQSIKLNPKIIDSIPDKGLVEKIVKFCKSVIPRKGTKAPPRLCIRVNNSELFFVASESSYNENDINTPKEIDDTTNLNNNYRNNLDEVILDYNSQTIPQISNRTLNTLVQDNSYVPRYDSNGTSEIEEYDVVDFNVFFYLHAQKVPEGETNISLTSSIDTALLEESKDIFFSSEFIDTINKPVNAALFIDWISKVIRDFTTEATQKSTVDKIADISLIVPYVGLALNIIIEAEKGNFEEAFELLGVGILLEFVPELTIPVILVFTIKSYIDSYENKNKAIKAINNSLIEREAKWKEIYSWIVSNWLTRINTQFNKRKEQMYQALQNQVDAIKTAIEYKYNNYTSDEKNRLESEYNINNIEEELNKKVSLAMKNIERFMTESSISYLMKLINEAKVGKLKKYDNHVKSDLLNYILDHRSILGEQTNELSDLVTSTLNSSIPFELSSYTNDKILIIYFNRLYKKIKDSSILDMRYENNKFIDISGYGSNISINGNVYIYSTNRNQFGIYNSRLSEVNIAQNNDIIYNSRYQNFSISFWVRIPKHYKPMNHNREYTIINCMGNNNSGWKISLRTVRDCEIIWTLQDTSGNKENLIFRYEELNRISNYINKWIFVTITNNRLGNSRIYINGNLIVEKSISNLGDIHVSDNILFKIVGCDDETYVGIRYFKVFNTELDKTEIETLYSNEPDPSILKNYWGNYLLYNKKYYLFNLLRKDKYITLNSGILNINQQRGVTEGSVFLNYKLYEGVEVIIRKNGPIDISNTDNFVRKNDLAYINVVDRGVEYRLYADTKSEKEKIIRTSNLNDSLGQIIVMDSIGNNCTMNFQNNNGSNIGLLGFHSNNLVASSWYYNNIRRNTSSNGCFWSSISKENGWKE
The experiment in a line: yeast scFv FACS.

For assay [5], the target named is BoNT/A light chain (recombinant) (Clostridium botulinum, UniProt P0DPI0 1-448). Briefly: KinExA, IgG. For orientation: In KinExA the mixture passes briefly over coated beads that capture the unbound partner.
Assay [6] deals with T1, BoNT/A1 holotoxin (Hall hyper). Briefly: KinExA, IgG.
Assay [7] deals with T2, BoNT/A2 holotoxin (FRI-H1A2). The experiment in a line: KinExA, IgG.
For assay [8], the target named is T3, BoNT/F1 (proteolytic BoNT/F).

T2 sequence (Q45894 2-1296): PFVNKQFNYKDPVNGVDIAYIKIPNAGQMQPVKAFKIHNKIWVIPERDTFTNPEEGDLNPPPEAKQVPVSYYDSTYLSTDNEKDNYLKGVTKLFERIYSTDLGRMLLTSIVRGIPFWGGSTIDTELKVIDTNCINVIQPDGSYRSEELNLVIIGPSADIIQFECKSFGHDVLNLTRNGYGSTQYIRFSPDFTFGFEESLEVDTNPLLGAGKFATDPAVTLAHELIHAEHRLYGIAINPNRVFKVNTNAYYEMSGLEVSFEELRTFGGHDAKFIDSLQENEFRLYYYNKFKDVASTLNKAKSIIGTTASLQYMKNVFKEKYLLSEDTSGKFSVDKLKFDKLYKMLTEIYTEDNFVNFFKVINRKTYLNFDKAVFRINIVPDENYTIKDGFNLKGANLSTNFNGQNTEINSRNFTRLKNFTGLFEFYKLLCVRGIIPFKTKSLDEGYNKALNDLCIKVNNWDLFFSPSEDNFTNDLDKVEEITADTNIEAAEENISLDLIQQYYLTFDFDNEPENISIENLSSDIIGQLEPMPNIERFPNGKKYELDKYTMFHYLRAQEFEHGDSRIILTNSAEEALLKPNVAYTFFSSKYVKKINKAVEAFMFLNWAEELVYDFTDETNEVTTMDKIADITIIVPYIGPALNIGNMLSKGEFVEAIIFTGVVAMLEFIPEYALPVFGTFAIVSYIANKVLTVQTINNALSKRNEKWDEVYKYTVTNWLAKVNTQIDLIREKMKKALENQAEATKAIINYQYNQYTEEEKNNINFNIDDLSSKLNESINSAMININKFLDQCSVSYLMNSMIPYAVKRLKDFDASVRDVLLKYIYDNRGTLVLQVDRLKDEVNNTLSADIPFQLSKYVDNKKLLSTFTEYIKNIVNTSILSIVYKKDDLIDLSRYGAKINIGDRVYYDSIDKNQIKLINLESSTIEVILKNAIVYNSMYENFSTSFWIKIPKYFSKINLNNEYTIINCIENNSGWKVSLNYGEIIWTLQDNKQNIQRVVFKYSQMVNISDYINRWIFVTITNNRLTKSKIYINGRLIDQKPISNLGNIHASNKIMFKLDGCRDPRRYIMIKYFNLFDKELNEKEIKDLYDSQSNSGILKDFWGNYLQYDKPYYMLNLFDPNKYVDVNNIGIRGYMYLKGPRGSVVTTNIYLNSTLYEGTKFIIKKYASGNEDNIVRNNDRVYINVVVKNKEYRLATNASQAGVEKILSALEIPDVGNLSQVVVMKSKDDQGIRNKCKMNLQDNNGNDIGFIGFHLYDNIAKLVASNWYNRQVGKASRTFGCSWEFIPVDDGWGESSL

B1: A9 (antibody, V domains shown)
VH: QVQLVQSGGGVVQPGRSLRLSCAASGFTFSSYGMHWVRQAPGKGLEWVSSISSSSSYIYYADSVKGRFTISRDNSKNTLYLQMNSLRAEDTAVYYCARGAVAGGSYGMDVWGQGTMVTVSS
VL: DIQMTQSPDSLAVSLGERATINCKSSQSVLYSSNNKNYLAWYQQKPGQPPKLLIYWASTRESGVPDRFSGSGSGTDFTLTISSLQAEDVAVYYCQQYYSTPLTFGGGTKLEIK
In general, Kd refers to a measure of binding affinity in units of concentration. Regarding B1, the Kd is 0.0771 nM in assay [1] and 0.223 nM in assay [2].

B2: 28H2 scFv (scFv, V domains shown)
VH: QVQLQESGPGLVKPSQTVSLTCTVAGYSITNGNHWWNWIRQVSGSKLEWIGYITSSGSTDSNPSLKSRISITRDTSKNQLFLQLNSVTTEDIATYYCARSSNYFFHVLDYWGQGTSVTVSS
VL: DIVLTQTPAIMSASPGEKVTMTCSASSSVSYMHWFQQKPGTSPKLWIYSTSNLASGVPARFSGSGSGTSYSLTISRMEAEDAATYYCQQRSSYPPTFGGGTRLEIK
Take B2: the Kd in assay [3] and in [4] was 1.55 nM each time. Also, the binding result with BoNT/F 202F is reported as “no binding”; with BoNT/F6 it was “no binding (tested: maximum toxin concentration tested)”.

B3: 6A1M IgG (antibody, V domains shown)
VH: LQLKQSGPGLVKPSQSLSLTCSVTGYSITSGYYWYWIRQFPGNKLEWMGYISYDGSNNYNPSLKNRISITRDTSKNQFFLKLNSVTTEDTATYYCARNLGLWYFDVWGTGTPLTVSS
VL: EIVLTQSPAILSASPGEKVTMTCRASSSVRYMHWYQQKPGSSPKPWIYATSNLASGVPARFSGSGSGTSYSLTISRVEAEDAATYYCQQWSGNAPTFGGGTKLEIK
notes: IgG converted from scFv
With B3, the results for the Kd in [5], in assay [6] and in assay [7] were 1.38 nM, 0.00921 nM and 0.00289 nM, respectively.

B4: ING2 IgG (antibody, V domains shown)
VH: QVQLVQSGAEVKKPGSSVKVSCKASGDTFNRNAIAWVRQAPGQGLEWMGRIIPNLRTTHYAQKFQGRVAITADKHTNTVFMELSSLRSEDTAVYYCARDPYYYSYMDVWGKGTTVTVSS
VL: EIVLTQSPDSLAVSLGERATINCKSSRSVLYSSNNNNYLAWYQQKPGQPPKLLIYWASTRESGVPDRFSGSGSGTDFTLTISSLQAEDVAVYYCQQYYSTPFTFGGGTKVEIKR
With B4, the values for the Kd in assay [5], in assay [6] and in [7] were 85.7 nM, 0.00957 nM and 0.00742 nM, respectively.

B5: 4E17.2 scFv (scFv, V domains shown)
VH: EVQLVQSGGNLVQPGGSLRLSCAATGPIGSHWMTWVRQAPGQGLEWVANINLDGTEKFYVDSVKGRFTVSRDNRKSSVFLQMNNLRVDDTAVYYCARLQWGGYNGWLSPWGQGTLVTVSS
VL: DIEMTQSPPSLSASVGDRVSLTCRASEYIGTSLNWYQQKPGKAPKLLIYAASALHSGVPSRFSGSGSGTDFTLTISGLQPEDFATYYCQQANDLPLTFGGGTKLEIK
For B5, the Kd in assay [8] was < 1 nM; in assay [3] it was 0.39 nM; in assay [4] it was 0.39 nM. Also, in the assay with BoNT/F 202F, the binding result was “binds”.

B6: 4E17.1 (antibody, V domains shown)
VH: EVQLVRSGGNLVQPGGSLRLSCAATGPIGSHWMTWVRQAPGQGLEWVANINLDGTEKFYVDSVKGRFTVSRDNRKSSVFLQMNNLRVDDTAVYYCARLQWGGYNGWLSPWGQGTLVTVSS
VL: DIVMTQSPSSLSASVGDRVTISCRASQSIRHYVNWYQQKPGKAPKLLIYKASSLASGAPSRFSGSGSGTDFTLTISSLQPDDFATYYCQQSYSIPLTFGGGTKVEIKR
Take B6: the Kd in [1] was determined as 0.00183 nM; in [2], 0.00798 nM.

B7: 42G8 scFv (scFv, V domains shown)
VH: EVQLVPSGGNLVQPGGSLRLSCAATGPIGSHWMTWVRQAPGQGLEWVANINLDGTEKFYVDSVKGRFTVSRDNRKSSVFLQMNNLRVDDTAVYYCARLQWGGYNGWLSPWGQGTLVTVSS
VL: DIVMTQSPPSLSASVGDRVSLTCRASEYIGTSLNWYQQKPGKAPKLLIYAASALHSGVPSRFSGSGSGTDFTLTISGLQPEDFATYYCQQTNDLPLTFGGGTKLEIK
Take B7: the “fold increase in affinity over scFv 4E17.2” value in assay [8] was ~6 fold. In [3], this molecule yielded a Kd of 0.243 nM. Also, in the assay with BoNT/F 202F, the binding result was “binds”.
